Measured values as given in the RNAGym collection of RNA variant scans (doi:10.1073/pnas.2313332121).
Variants at the floor of the assay were thinned out.

B1: TPR 5TU (parent)
chain: GGAUCUUCUCGAUCUAACAAAAAAGACAAAUCUGCCACAAAGCUUGAGAGCAUCUUCGGAUGCAGAGGCGGCAGCCUUCGGUGGCGCGAUAGCGCCAACGUUCUCAACUAUGACACGCAAAACGCGUGCUCCGUUGAAUGGAGUUUAUCAUG

Variants of: B1
Assay: polymerase ribozyme fitness, log enrichment relative to wild type (log ratio); higher = more active; in vitro selection for triplet polymerase activity
In short: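 Mutant libraries of each subunit of a heterodimeric triplet polymerase ribozyme were built by PCR and transcribed. Each library went through one round of in vitro selection in triplicate: annealing with biotinylated primer, partner subunit and triplets, frozen incubation at −7 °C, gel excision of extended constructs, streptavidin-bead capture and RT-PCR. Input and output libraries were Illumina-sequenced; only genotypes with ≥10 input reads and ≥1 read per output were kept. Fitness is log2(genotype enrichment/wild-type enrichment), using inverse-variance-weighted replicate averages.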

Row | Variant | polymerase ribozyme fitness (log ratio)
1 | C132A | -2.06
2 | C132U | -0.687
3 | A137U G143U | -3.39
4 | C125U G141C | -3.85
5 | G124A U148C | -0.766
6 | G124A U148G | -3.69
7 | C125U A147U | -1.83
8 | U148G U151A | -3.95
9 | U127G G141A | -3.27
10 | U135A A147U | -0.75
11 | G140U A147U | -2.9
12 | A150C G152A | -3
13 | A138U U151C | -4.01
14 | U151C | -2.78
15 | U151A | -3.44
16 | U151G | -3.49
17 | A137U G141A | -3.24
18 | A137U G141U | -3.93
19 | U144G U145A | 0.571
20 | G141A | 0.689
21 | G141C | -0.0848
22 | G141U | 1.61
23 | G126A C132U A142C | ≤ -4.2
24 | G124A A150G | -0.501
25 | A150G | -0.734
26 | A150U | 1.3

Row | Variant | polymerase ribozyme fitness (log ratio)
27 | A150C | -2.71
28 | A137G U145G | -1.02
29 | A142G U146C | -3.25
30 | U135A G143A A147G | ≤ -4.2
31 | G124C G141C | -1.16
32 | C131G G136U G141U G143U | ≤ -4.2
33 | U139A G143U U146G | -3.74
34 | U139G A150C | -3.84
35 | A138C | -3.67
36 | A138U | -3.87
37 | A138G | -1.9
38 | C131G G133C G136U G141U | -3.43
39 | A142G A147U | -0.49
40 | A142C U144A U148G | ≤ -4.2
41 | U130C U144C A147C | -1.95
42 | G143A U151G | ≤ -4.2
43 | C123U G124A U144C | 0.0575
44 | U127G U144G | -1.7
45 | U134A G141U | -2.41
46 | G126U | 0.31
47 | G126A | 0.682
48 | G126C | 1.28
49 | C131U U144G | -0.864
50 | G140A U144A | -3.68
51 | G124U A142C | -1.75
52 | C129A U148G | -4.11

Row | Variant | polymerase ribozyme fitness (log ratio)
53 | G124C A142U | -0.985
54 | G141U A142C | -3.58
55 | G141A U144C | -3.08
56 | G124A G140C | -3.89
57 | G124A A137G | -1.05
58 | U134A A137G | -3.22
59 | G124C C132A | -2.4
60 | G126C A150G | -2.81
61 | G126U G152U | -2.47
62 | U134A U148G | ≤ -4.2
63 | G143C U145G | -1.8
64 | G141U G143A | -2.79
65 | U146A | -0.305
66 | U146G | -0.513
67 | U146C | 0.00807
68 | A137U | -3.39
69 | A137G | -1.15
70 | A137C | -3.09
71 | U146G A150C | ≤ -4.2
72 | C123A G140A | -3.65
73 | C129A G143A A150G | -3.66
74 | G124A G136A | -0.107
75 | G124A C125G | 0.356
76 | U135G U144G | -2.41
77 | G126U C132U | -0.717
78 | C132U A150G | -2.47
